Read-outs that look alike come from different tables or passages of the source.
What was measured:
[1] = glycan lost
[2] = cell-surface biotinylation, anti-hACE2 western blot; details: glycan lost; control: full-length hACE2 wt
[3] = focus reduction neutralization test, Vero E6 cells; details: glycan lost; control: shACE2-wt

| Substance | other: virus entry into hACE2-expressing cells [1] | other: virus entry into hACE2-expressing cells, fold_change [1] | expression_or_secretion [2] | other: decoy neutralising activity of shACE2, other: FRNT50 [3] | other: decoy neutralising activity of shACE2, other: FRNT50 [1] |
| --- | --- | --- | --- | --- | --- |
| angiotensin-converting enzyme 2 (hACE2): N53A | decreases | decreases | no change |  |  |
| angiotensin-converting enzyme 2 (hACE2): N53A/N90A/N322A | increases | increases | no change | increases |  |
| angiotensin-converting enzyme 2 (hACE2): N90A | increases | increases | no change | increases |  |
| angiotensin-converting enzyme 2 (hACE2): N90A/N322A | increases | increases | no change | increases | increases |
| angiotensin-converting enzyme 2 (hACE2): N90S | increases |  |  |  |  |
| angiotensin-converting enzyme 2 (hACE2): N90S/N322S | increases | increases |  |  |  |
| angiotensin-converting enzyme 2 (hACE2): N322A | increases | increases | no change |  |  |
| angiotensin-converting enzyme 2 (hACE2): N322S | increases |  |  |  |  |

Reference: article PMC9637154
